Assays:
Taq DNA polymerase [1] = target: T1, Taq DNA polymerase (Thermus aquaticus, UniProt P19821 P19821:1-832); experiment: FP filter; printed as >>1000; 55C; IT50 <40C; settings: tags: rTaq, 94 kDa, Roche Molecular Systems; label: end-labeled
Description: (§1) Binding interactions of individual sequences with Taq polymerase was measured by nitrocellulose filter binding at 55° C. […] Clones 6 (SEQ ID NO:78), 22 (SEQ ID NO:81) and 28 (SEQ ID NO:87) all show high-affinity binding to Taq polymerase at 55° C. as characterized by their K_d values in the low picomolar range.

Taq DNA polymerase [2] = target: T1, Taq DNA polymerase; experiment: FP filter; 55C; IT50 44.6C; settings: tags: rTaq, 94 kDa, Roche Molecular Systems; label: end-labeled
Taq DNA polymerase [3] = target: T1, Taq DNA polymerase; experiment: FP filter; 55C; IT50 52.3C; settings: tags: rTaq, 94 kDa, Roche Molecular Systems; label: end-labeled
Taq DNA polymerase [4] = target: T1, Taq DNA polymerase; experiment: inhibition; 45C; settings: tags: rTaq, 94 kDa, Roche Molecular Systems; label: end-labeled
Description: (§2) As set forth in Table 12, the $IT50$ values of truncated ligands TQH6-Tr, TQH22-Tr and TQH28-Tr were decreased by 5–9° C. upon truncation.
(§3) Measurement of $IC50$ Values. $IC50$ values (the concentration of inhibitor required to produce 50% of the product in the assay) were obtained using hairpin extension assays. In a typical inhibition assay, a 20 μL reaction contained either 0.25 (0.04) pmoles of Taq polymerase (5 U) (1 U), 0.125 pmoles of Tth polymerase (2.5 U) or 0.05 pmoles of TZ05 polymerase (1 U), oligonucleotide inhibitor (at varying concentrations), […] dNTPs in either Tris or Tricine buffer (Taq and Tth pol) or TZ05 buffer (TZ05 pol). Gel purified, 5'-end-labeled hairpin DNA substrate (DNA-HP; 5'-[…]-3' (SEQ ID NO:6)) was then added to a final concentration of 250 nM and the reactions were incubated for a given time at the desired temperature as indicated in the figure legends (30 minutes for TZ05 pol). The reaction was stopped by adding 5 μL of 0.5 M EDTA (pH 8.0) followed by formamide gel loading buffer. Extension products were resolved on 10% polyacrylamide gels under denaturing conditions and quantitated by phosphorimager. The amount of products formed in the presence of inhibitor was normalized to the product formed in the absence of an inhibitor to obtain the percent of product.

Taq DNA polymerase [5] = target: T1, Taq DNA polymerase; experiment: FP filter; Tris buffer 55C; 5 pM at 40C; Tricine 9.4 (40C), 116 (55C) pM; IT50 52C; settings: tags: rTaq, 94 kDa, Roche Molecular Systems; label: end-labeled
Description: as §1
(§4) The binding analysis shown in FIGS. 4A–E were performed in the Tris buffer at 55° C. […] (Table 7).

Taq DNA polymerase [6] = target: T1, Taq DNA polymerase; experiment: FP filter; 55C; IT50 52C; settings: tags: rTaq, 94 kDa, Roche Molecular Systems; label: end-labeled
Taq DNA polymerase [7] = target: T1, Taq DNA polymerase; experiment: FP filter; 55C; IT50 41C; settings: tags: rTaq, 94 kDa, Roche Molecular Systems; label: end-labeled
Taq DNA polymerase [8] = target: T1, Taq DNA polymerase; experiment: FP filter; Tm 51C; settings: tags: rTaq, 94 kDa, Roche Molecular Systems; stem-loop
Description: Room Temperature. To assess the affinity of oligonucleotide libraries and individual ligands the nitrocellulose filter binding technique was used. Briefly, gel-purified ^32P ss-DNA pools labeled at the 5' end were suspended in the binding buffer, heated to 80° C., chilled on ice and then brought to room temperature. The DNA (5–10 pM) was then incubated for 15 minutes at room temperature with varying amounts of the target polymerase in 50 µL of the appropriate binding buffer containing 0.1 µg of tRNA and 0.01% hSA. The DNA concentrations were kept lower than 100 pM to ensure equilibrium in the presence of excess protein concentrations. […] The amount of DNA bound to the filters was quantitated by measuring the radioactivity of the filters by liquid scintillation counting. The quantity of DNA bound to filters in the absence of protein was used for background correction. […]
[1]The boxed region denotes the conserved sequence element with the predicted stem-loop structure identified in the Family I sequences; vertical lines signify Watson-Crick type base pairing; circles show an uncommon G-T base pair. [2]K_d values were measured by the nitrocellulose filter binding technique described in Example 1. [3]Melting transitions (T_m) were measured in a PCR buffer containing 10 mM Tris-HCl, 50 mM KCl, 2 mM MgCl_2, pH 8.3, at a 1° C./min temperature ramp.

Taq DNA polymerase [9] = target: T1, Taq DNA polymerase; experiment: FP filter; Tris buffer 55C; 5 pM at 40C; Tricine 4.6 (40C), 36 (55C) pM; IT50 54.8C; settings: tags: rTaq, 94 kDa, Roche Molecular Systems; label: end-labeled
Description: as §1, §4

Taq DNA polymerase [10] = target: T1, Taq DNA polymerase; experiment: FP filter; 55C; IT50 53.7C; settings: tags: rTaq, 94 kDa, Roche Molecular Systems; label: end-labeled
Description: as §1

Taq DNA polymerase [11] = target: T1, Taq DNA polymerase; experiment: inhibition; 45C; IT50 56.1C; settings: tags: rTaq, 94 kDa, Roche Molecular Systems; label: end-labeled
Description: as §2, §3

Taq DNA polymerase [12] = target: T1, Taq DNA polymerase; experiment: FP filter; Tris buffer 55C; 3.8 pM at 40C; Tricine 5.6 (40C), 18 (55C) pM; IT50 56C; settings: tags: rTaq, 94 kDa, Roche Molecular Systems; label: end-labeled
Description: as §1, §4

T1 sequence (P19821 whole entry, one chain of several): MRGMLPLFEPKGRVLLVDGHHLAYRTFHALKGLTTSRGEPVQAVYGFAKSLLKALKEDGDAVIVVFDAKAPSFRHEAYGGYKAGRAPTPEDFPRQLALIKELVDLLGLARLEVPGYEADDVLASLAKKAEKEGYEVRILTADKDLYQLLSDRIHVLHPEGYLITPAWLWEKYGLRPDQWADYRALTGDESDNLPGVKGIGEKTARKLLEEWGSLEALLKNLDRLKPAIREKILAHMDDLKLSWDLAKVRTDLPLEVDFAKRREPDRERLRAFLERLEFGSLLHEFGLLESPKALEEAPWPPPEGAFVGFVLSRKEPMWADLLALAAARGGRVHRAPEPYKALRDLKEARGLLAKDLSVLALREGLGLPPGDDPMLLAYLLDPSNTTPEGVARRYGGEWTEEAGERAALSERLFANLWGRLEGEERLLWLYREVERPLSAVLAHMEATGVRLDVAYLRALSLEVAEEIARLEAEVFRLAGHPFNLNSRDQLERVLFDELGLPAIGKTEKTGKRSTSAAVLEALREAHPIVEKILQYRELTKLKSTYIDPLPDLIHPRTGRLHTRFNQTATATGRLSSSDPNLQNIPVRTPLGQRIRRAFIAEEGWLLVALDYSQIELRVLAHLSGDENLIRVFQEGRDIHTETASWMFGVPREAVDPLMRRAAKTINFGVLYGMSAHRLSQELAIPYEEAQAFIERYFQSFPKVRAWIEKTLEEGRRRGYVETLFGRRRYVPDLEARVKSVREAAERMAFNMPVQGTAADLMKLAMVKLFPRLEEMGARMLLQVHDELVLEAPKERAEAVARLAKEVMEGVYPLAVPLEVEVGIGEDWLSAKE

B1: ligand 18 (ssDNA)
DNA: TTCTCGGTTGGTCTCTGGCGGAGCATACACGACGTCATTCTAGCGTTTTGTCTTGTGTATGATTCGCTTTTCCC
**Q.** Which Kd (Taq DNA polymerase [1]) does the source give for B1 here?
**A.** Its Kd is > 1 nM.

B2: ligand 10 (ssDNA)
DNA: TTCTCGGTTGGTCTCTGGCGGAGCGGATCAGACACGAAACATTGCGGACTTTTGTCTTGTGTATGATTCGCTTTTCCC
**Q.** How did the Kd (Taq DNA polymerase [2]) turn out when B2 was run?
**A.** The Kd was 0.03 nM.

B3: ligand 15 (ssDNA)
DNA: TTCTCGGTTGGTCTCTGGCGGAGCATGCACAGCGACATTCTCAGCGTTTTGTCGTCTTGTGTATGATTCGCTTTTCCC
**Q.** For B3, which Kd (Taq DNA polymerase [3]) is on record?
**A.** The Kd was 0.0138 nM.

B4: ligand 28 (TQH28) (ssDNA)
DNA: TTCTCGGTTGGTCTCTGGCGGAGCAGGAGCAAGAATCATTCTTAGCGTTTTGATTCTTGTGTATGATTCGCTTTTCCC
**Q.** What does the source list for B4?
**A.** IC50 (Taq DNA polymerase [4]): 37 nM; Kd (Taq DNA polymerase [5]): 0.0135 nM

B5: ligand 36 (Taq selection) (ssDNA)
DNA: TTCTCGGTTGGTCTCTGGCGGAGCAGAAGCAAGAATCATTCTTAGCGTTTTGATTCTTGTGTATGATTCGCTTTTCCC
**Q.** How did the Kd (Taq DNA polymerase [6]) turn out when B5 was run?
**A.** The Kd was 0.031 nM.

B6: ligand 20 (ssDNA)
DNA: TTCTCGGTTGGTCTCTGGCGGAGCGATCAGACACGAAACATTGCGGACTTTTGTCTTGTGTATGATTCGCTTTTCCC
**Q.** B6 was tested. Which Kd (Taq DNA polymerase [7]) did it give?
**A.** The Kd was 0.105 nM.

B7: Trnc.A-30 (30-mer) (ssDNA)
DNA: AAGACCAGACAATGTACAGTATTGGCCTGA
modifications: [none]
**Q.** With B7 as the binder, how does the Kd (Taq DNA polymerase [8]) read?
**A.** The Kd was 0.6 nM.

B8: ligand 6 (TQH6) (ssDNA)
DNA: TTCTCGGTTGGTCTCTGGCGGAGCGAATCATACGAAGACATTCCAACGTTTTGTCTTGTGTATGATTCGCTTTTCCC
**Q.** How did the Kd (Taq DNA polymerase [9]) turn out when B8 was run?
**A.** Its Kd is 0.0085 nM.

**Q.** What about the IC50 (Taq DNA polymerase [4]) of the same binder?
**A.** The IC50 was 30 nM.

B9: ligand 19 (ssDNA)
DNA: TTCTCGGTTGGTCTCTGGCGGAGCGAATCGGACATCAAGGGTTCCAGCAGTGCTTCTTGTGTATGATTCGCTTTTCCC
**Q.** How did the Kd (Taq DNA polymerase [10]) turn out when B9 was run?
**A.** The Kd was 0.0112 nM.

B10: ligand 22 (TQH22) / TZ3 (ssDNA)
DNA: TTCTCGGTTGGTCTCTGGCGGAGCATACACGACGTCATTCTAGCGTTTTGACGTCTTGTGTATGATTCGCTTTTCCC
**Q.** How did the IC50 (Taq DNA polymerase [11]) turn out when B10 was run?
**A.** Its IC50 is 37 nM.

**Q.** What about the Kd (Taq DNA polymerase [12]) of the same binder?
**A.** Its Kd is 0.014 nM.

From patent US6183967, “Nucleic acid ligand inhibitors to DNA polymerases” (NeXstar Pharmaceuticals)
